The term EC50 denotes the concentration needed to bring the measured effect to its halfway point. Read a high EC50 as a less potent agent.

Experimental findings from patent US20250340658A1 (TWIST BIOSCIENCE, published 2025) are described below.

Where two headings read alike, the source gives them in different places.

In experiment [1] the target is T1, full length human GLP-1R with N-terminal FLAG tag and C-terminal GFP tag, on CHO cells (human, UniProt P43220 24-463).
T1 construct: whole, on cells; the cell line itself is tied to UniProt P43220; also called FLAG-GLP-1R-GFP; CHO-GLP-1R
Nature of the experiment: flow cytometry titration, CHO GLP1R cells. On the procedure:
(§1) GLP-1R IgG clones were tested in a binding assay coupled to flow cytometry analysis as follows: FLAG-GLP-1R-GFP expressing CHO cells (CHO-GLP-1R) and CHO-parent cells were incubated with 100 nM IgG for 1 h on ice, washed three times and incubated with Alexa 647 conjugated goat-anti-human antibody (1:200) (Jackson ImmunoResearch Laboratories, 109-605-044) for 30 min on ice, followed by three washes, centrifuging to pellet the cells between each washing step. All incubations and washes were in buffer containing PBS+1% BSA. […] Cells were analyzed by flow cytometry and hits (a hit is an IgG that specifically binds to CHO-GLP-1R) were identified by measuring the GFP signal against the Alexa 647 signal. Flow cytometry data of binding assays with 100 nM IgG are presented as dot plots. Analyses of binding assays with IgG titrations are presented as binding curves plotting IgG concentrations against MFI (mean fluorescence intensity).
Background: A flow cytometer gives signals particle by particle.

In experiment [2] the target is T1, full length human GLP-1R with …. Kind of experiment: flow cytometry titration, CHO GLP1R cells. On the procedure: as §1
This is another data set of the same source.

For experiment [3] the target is unchanged. Kind of experiment: flow cytometry, GLP1R-expressing CHO cells. On the procedure: as §1
Experiment [4] shares this target. Nature of the experiment: flow cytometry, GLP1R-expressing CHO cells. On the procedure:
as §1
This is another data set of the same source.

The target is the same in experiment [5]. Nature of the experiment: flow cytometry, expressing vs parent CHO cells. On the procedure:
as §1

Experiment [6] shares this target. Nature of the experiment: flow cytometry, expressing vs parent CHO cells. On the procedure:
as §1
This is another data set of the same source.

For experiment [7] the target is unchanged. Kind of experiment: flow cytometry, expressing vs parent CHO cells. On the procedure: as §1
This is another data set of the same source.

Experiment [8] shares this target. Kind of experiment: flow cytometry, expressing vs parent CHO cells. On the procedure:
as §1
The source holds these as a separate data set.

Experiment [9] has the same target. Nature of the experiment: flow cytometry, expressing minus parent CHO cells. On the procedure: as §1
For experiment [10] the target is unchanged. Nature of the experiment: flow cytometry, expressing minus parent CHO cells. On the procedure:
as §1
This is another data set of the same source.

B1: GLP1R-3 (antibody, human IgG2, lambda, V domains shown)
VH: QVQLVESGGGVVQPGRSLRLSCAASGFTFSSYGMHWVRQAPGKGLEWVSFISYDESNKYYADSVKGRFTISRDNSKNTLYLQMNSLRAEDTAVYYCAKHMSMQEGAVTGEGQAAKEFIAWLVKGRVRADLVGDAFDVWGQGTLVTVSS
VL: QSVLTQPPSVSAAPGQKVTISCSGSSSNIADNYVSWYQQLPGTAPKLLIYDNNKRPSGIPDRFSGSKSGTSATLGITGLQTGDEADYYCGTWDNYLGAGVFGGGTKLTVLG
notes: full length human IgG2; also called GLP1R01-3
Turning to B1, the Bmax is 800000 in experiment [1] and 153000 in experiment [2]. The EC50 is 0.0115 µM in experiment [1] and 0.0154 µM in experiment [2]. In addition, the figures for the “Median RL1-H of Expressing Singlets” value in [3] and in experiment [4] were 232000 and 224000, respectively. Moreover, the “MFI Ratio” value in [5] was determined as 993; in [6] it was 740; in [7] it was 993; in [8] it was 740. The Subtraction in [9] was 232000; in experiment [10] it was 224000.

B2: GLP1R-222-090 (antibody, V domains shown)
VH: QVQLVESGGGVVQPGRSLRLSCAASGFSFSDYGIHWVRQAPGKGLEWVALISYEGSNKYYADSVKGRFTISRDNSKNTLYLQMNSLRAEDTAVYYCAKHMSMQEGAVTGEKQAAKEFIAWLVKGRVRADLVGDAFDVWGQGTLVTVSS
VL: QSVLTQPPSVSAAPGQKVTISCSGSSSNIADNYVSWYQQLPGTAPKLLIYDNNKRASGIPDRFSGSKSGTSATLGITGLQTGDEADYYCATWDNRLSAGVFGGGTKLTVL
notes: IgG
With B2, in experiment [2], the Bmax stood at 1.08e+06. In addition, the “Median RL1-H of Expressing Singlets” value in experiment [4] is 227000. Moreover, the “MFI Ratio” value in experiment [6] and in experiment [8] was 525 in each case. In [10], the Subtraction is 227000.

B3: GLP1R-222-082 (antibody, V domains shown)
VH: QVQLVESGGGVVQPGRSLRLSCAASGFTFSAYSMHWVRQAPGKGLEWVALISYDATNKYYADSVKGRFTISRDNSKNTLYLQMNSLRAEDTAVYYCAKHMSMQEGAVTGEFQAAKEFIAWLVKGRVRADLVGDAFDVWGQGTLVTVSS
VL: QSVLTQPPSVSAAPGQKVTISCSGSSSNIGSKYVSWYQQLPGTAPKLLIYDNNKRPSGIPDRFSGSKSGTSATLGITGLQTGDEADYYCGTWDISPSAWVFGGGTKLTVL
notes: IgG
For B3, in experiment [2], the Bmax came to 135000. The molecule further displayed an EC50 in experiment [2] of 0.0115 µM. Also, the “Median RL1-H of Expressing Singlets” value in [4] amounted to 224000. Besides, the “MFI Ratio” value in experiment [6] and in [8] was 711 throughout. The Subtraction in experiment [10] amounted to 224000.

B4: GLP1R-222-052 (antibody, V domains shown)
VH: QVQLVESGGGVVQPGRSLRLSCAASGFTFNNYPMHWVRQAPGKGLEWVAVISYDESNKYYADSVKGRFTISRDNSKNTLYLQMNSLRAEDTAVYYCAKHMSMQEGAVTGGGQAAKEFIAWLVKGRVRADLVGDAFDVWGQGTLVTVSS
VL: QSVLTQPPSVSAAPGQKVTISCSGSSSNIGKRSVSWYQQLPGTAPKLLIYDNNKRASGIPDRFSGSKSGTSATLGITGLQTGDEADYYCVTWDRSLSAGVFGGGTKLTVL
notes: IgG
Turning to B4, in [2], the Bmax was 228000. In addition, in experiment [2], the EC50 turned out to be 0.0174 µM. The “Median RL1-H of Expressing Singlets” value in experiment [4] turned out to be 378000. The “MFI Ratio” value in experiment [6] and in experiment [8] was 13.7 in each case. The Subtraction in experiment [10] was determined as 350000.
